Experimental data as given in article PMC2747047.

Experiments:
Test in all cases: purified protein
[1] = tested on: O=C(Cc1cccs1)N[C@@H]1C(=O)N2C(C(=O)O)=C(/C=C/c3ccc([N+](=O)[O-])cc3[N+](=O)[O-])CS[C@H]12; assay type: biochemical, Arabidopsis thaliana; settings: 10 mM MOPS, pH 7.2 (as in Figure 2), Fe/Zn enzyme
[2] = tested on: CO/N=C(\C(=O)N[C@@H]1C(=O)N2C(C(=O)O)=C(COC(C)=O)CS[C@H]12)c1csc(N)n1; settings: Fe/Zn enzyme; buffer not told in main text
[3] = tested on: C[C@@H](O)[C@H]1C(=O)N2C(C(=O)O)=C(SCCN=CN)C[C@H]12; settings: Fe/Zn enzyme; buffer not told in main text

Glx2-1 (Arabidopsis thaliana) was tested. Which Km [1] did it give?
Its Km is 9.9 ± 1.6 µM.

And the kcat [1]?
Its kcat is 1.20 ± 0.04 s⁻¹.

And the Km [2]?
The Km was 25 ± 5 µM.

And the kcat [2]?
The kcat was 0.20 ± 0.01 s⁻¹.

What about the Km [3] of the same substance?
Its Km is 23 ± 3 µM.

What about the kcat [3] of the same substance?
The kcat was 0.20 ± 0.01 s⁻¹.
